Target: T1, complement C3b (UniProt P01024 23-667; P01024 749-1663)
T1 construct: purified C3b (Complement Technology Inc. cat #A114) in the cleavage assay; also called purified C3b; C3b fragment
Experiment: C3b binding ELISA, C3b-coated plate, HEK293T supernatant
Protocol: C3b binding ELISA. The C3b binding ELISA is an in-house ELISA adapted from Nichols et. al. ([…] The assay tests if CpG-free miniCFH retains direct C3b binding ability by utilizing monoclonal anti-CFH blocking antibodies to prevent miniCFH binding to a C3b coated plate. The assay was carried out with both full-length recombinant CFH as proof of concept, and supernatants from 293T cells transfected with CpG-free miniCFH. As a control, we included conditions of mock incubation of CFH and transfected cell supernatant with no antibodies.

T1 sequence (P01024 23-667 limits assumed, chain 1 of 2): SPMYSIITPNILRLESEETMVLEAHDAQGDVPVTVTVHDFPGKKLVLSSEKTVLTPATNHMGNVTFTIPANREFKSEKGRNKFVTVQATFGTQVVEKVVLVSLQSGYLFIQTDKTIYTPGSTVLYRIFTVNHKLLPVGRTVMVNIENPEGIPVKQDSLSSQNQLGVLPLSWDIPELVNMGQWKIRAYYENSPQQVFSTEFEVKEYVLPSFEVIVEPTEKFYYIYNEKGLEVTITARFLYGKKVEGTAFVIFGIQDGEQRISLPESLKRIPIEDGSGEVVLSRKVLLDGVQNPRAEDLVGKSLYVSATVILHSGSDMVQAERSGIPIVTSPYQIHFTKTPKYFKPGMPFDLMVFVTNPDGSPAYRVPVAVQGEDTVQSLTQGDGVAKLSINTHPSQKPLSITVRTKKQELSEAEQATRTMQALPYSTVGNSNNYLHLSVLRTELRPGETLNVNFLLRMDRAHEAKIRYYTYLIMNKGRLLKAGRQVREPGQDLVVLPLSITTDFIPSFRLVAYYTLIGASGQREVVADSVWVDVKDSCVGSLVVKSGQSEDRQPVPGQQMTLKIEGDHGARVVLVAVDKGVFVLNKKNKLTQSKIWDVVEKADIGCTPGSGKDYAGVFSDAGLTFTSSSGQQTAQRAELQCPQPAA
T1 sequence (P01024 749-1663 limits assumed, chain 2 of 2): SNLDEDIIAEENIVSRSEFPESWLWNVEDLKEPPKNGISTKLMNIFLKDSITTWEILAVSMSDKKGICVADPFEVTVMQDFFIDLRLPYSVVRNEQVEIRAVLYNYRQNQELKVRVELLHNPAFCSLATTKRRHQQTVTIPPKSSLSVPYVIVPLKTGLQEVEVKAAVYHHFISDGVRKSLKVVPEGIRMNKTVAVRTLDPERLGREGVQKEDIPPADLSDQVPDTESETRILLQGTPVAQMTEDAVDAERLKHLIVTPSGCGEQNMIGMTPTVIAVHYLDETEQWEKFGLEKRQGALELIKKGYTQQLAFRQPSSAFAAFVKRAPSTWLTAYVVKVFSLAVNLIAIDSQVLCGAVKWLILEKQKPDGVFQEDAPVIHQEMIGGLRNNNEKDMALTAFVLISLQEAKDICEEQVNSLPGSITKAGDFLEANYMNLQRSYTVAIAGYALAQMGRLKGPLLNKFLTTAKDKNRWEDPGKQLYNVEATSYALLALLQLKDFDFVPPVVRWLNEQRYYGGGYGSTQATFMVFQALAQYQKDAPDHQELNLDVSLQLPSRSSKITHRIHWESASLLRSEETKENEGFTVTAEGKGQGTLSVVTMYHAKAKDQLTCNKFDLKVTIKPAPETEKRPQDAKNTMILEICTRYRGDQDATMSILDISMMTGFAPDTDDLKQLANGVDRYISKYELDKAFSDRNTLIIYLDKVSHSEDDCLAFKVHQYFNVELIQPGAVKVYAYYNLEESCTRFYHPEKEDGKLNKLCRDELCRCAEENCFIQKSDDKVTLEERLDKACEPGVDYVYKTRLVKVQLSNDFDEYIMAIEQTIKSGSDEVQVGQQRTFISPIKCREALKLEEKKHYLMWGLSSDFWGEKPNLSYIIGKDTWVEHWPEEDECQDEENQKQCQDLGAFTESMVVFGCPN

binding result: binds
B1: miniCFH (shortened form of human complement factor H containing SCRs 1-4, 6-8 and 17-20) (other)
chain: EDCNELPPRRNTEILTGSWSDQTYPEGTQAIYKCRPGYRSLGNIIMVCRKGEWVALNPLRKCQKRPCGHPGDTPFGTFTLTGGNVFEYGVKAVYTCNEGYQLLGEINYRECDTDGWTNDIPICEVVKCLPVTAPENGKIVSSAMEPDREYHFGQAVRFVCNSGYKIEGDEEMHCSDDGFWSKEKPKCVEISCKSPDVINGSPISQKIIYKENERFQYKCNMGYEYSERGDAVCTESGWRPLPSCEEKSTLKPCDYPDIKHGGLYHENMRRPYFPVAVGKYYSYYCDEHFETPSGSYWDHIHCTQDGWSPAVPCLRKCYFPYLENGYNQNYGRKFVQGKSIDVACHPGYALPKAQTTVTCMENGWSPTPRCIRVKTCSKSSIDIENGFISESQYTYALKEKAKYQCKLGYVTADGETSGSITCGKDGWSAQPTCIKSIKTDCLSLPSFENAIPMGEKKDVYKAGEQVTYTCATYYKMDGASNVTCINSRWTGRPTCRDTSCVNPPTVQNAYIVSRQMSKYPSGERVRYQCRSPYEMFGDEEVMCLNGNWTEPPQCKDSTGKCGPPPPIDNGDITSFPLSVYAPASSVEYQCQNLYQLEGNKRITCRNGQWSEPPKCLHPCVISREIMENYNIALRWTAKQKLYSRTGESVEFVCKRGYRLSSRSHTLRTTCWDGKLEYPTCAKR
notes: Tested as unpurified serum-free supernatant of HEK293T cells transfected with the rAAV plasmid cassette; also called CpG-free miniCFH; short CFH
